Results reported in article PMC8166883.

How the values were obtained:
[1] = target: FLAG-tagged human tumor necrosis factor α (FLAG-hTNFα) (human) (UniProt P01375); experiment: SPR
[2] = target: FLAG-tagged human vascular endothelial growth factor-A (FLAG-hVEGF-A) (human) (UniProt P15692); experiment: SPR
FLAG-tagged human vascular endothelial growth factor-A (FLAG-hVEGF-A) (human), sequence (P15692 other isoform, or with tags, fused parts or gaps): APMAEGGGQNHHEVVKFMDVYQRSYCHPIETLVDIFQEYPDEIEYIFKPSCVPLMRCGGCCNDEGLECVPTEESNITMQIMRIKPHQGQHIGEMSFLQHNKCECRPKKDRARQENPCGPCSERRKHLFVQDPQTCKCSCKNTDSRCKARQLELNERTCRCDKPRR

FLAG-tagged human tumor necrosis factor α (FLAG-hTNFα) (human), sequence (P01375 whole entry): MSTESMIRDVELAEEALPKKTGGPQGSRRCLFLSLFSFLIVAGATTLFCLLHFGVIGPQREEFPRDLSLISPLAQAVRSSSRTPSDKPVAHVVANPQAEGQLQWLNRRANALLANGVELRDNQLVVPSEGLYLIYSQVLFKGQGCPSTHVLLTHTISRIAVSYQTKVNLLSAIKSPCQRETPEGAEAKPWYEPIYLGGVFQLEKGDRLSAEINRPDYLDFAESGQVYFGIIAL

Kd [2] [nM]	koff [2] [s⁻¹]	Substance	Kd [1] [nM]	koff [1] [s⁻¹]
		adalimumab	0.41	0.00036
0.341	0.000105	bevacizumab		
